Measured values reported in publication PMC7374751, “TIMP-3 facilitates binding of target metalloproteinases to the endocytic receptor LRP-1 and promotes scavenging of MMP-1” (Scientific Reports, 2020).

Key:
Test in all cases: enzyme activity of pre-formed complexes against synthetic substrates; 10 nM [35S]TIMP-3 incubated with an equimolar concentration of metalloproteinase for 1 h at 37 °C; complex formation and stability over 24 h checked by activity
Conditions in all cases: both partners purified
[1] = target: T1, MMP-3 catalytic domain (MMP-3ΔC) (UniProt P08254 100-272)
T1 construct: catalytic domain of MMP-3; pro-domain removed with APMA

[2] = target: T2, ectodomain of MMP-14 (UniProt P50281 112-541)
T2 construct: also called MMP-14 ectodomain; MMP-14 catalytic domain

[3] = target: T3, FLAG-tagged ADAMTS-5 lacking the C-terminal thrombospondin domain (ADAMTS5-2) (UniProt Q9UNA0 262-874)
T3 construct: ADAMTS-5 lacking the C-terminal thrombospondin domain
T3 sequence (looked up): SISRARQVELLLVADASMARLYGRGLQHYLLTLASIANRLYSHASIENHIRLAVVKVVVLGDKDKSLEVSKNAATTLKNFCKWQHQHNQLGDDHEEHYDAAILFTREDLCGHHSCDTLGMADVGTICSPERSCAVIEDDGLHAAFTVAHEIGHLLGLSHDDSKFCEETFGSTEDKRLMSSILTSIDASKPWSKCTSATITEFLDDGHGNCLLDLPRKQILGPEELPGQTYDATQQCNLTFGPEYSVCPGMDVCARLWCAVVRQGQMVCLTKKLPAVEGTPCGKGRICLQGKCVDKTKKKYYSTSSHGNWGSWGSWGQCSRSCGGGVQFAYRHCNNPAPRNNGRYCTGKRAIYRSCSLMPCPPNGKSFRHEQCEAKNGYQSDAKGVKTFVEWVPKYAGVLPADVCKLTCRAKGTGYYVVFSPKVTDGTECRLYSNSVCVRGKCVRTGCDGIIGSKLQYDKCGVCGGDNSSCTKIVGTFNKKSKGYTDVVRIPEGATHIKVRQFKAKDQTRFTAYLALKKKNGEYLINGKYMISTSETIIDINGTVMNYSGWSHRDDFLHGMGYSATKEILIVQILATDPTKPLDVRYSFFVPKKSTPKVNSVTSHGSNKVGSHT

Measured: stoichiometry N

T1 sequence (P08254 100-272, stated change not applied): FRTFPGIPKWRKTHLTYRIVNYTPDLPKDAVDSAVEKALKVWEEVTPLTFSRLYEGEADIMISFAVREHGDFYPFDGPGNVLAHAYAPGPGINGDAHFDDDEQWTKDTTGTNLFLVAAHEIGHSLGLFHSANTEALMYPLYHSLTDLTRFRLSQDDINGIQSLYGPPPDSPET

B1: FLAG-tagged TIMP-3 (natural protein, UniProt P35625 24-211, looked up)
chain: CTCSPSHPQDAFCNSDIVIRAKVVGKKLVKEGPFGTLVYTIKQMKMYRGFTKMPHVQYIHTEASESLCGLKLEVNKYQYLLTGRVYDGKMYTGLCNFVERWDQLTLSQRKGLNYRYHLGCNCKIKSCYYLPCFVTSKNECLWTDMLSNFGYPGYQSKHYACIRQKGGYCSWYRGWAPPDKSIINATDP
notes: also called T3; [35S]TIMP-3
1: all assays above
